# Data taken from IntAct's records for PubMed 24794838.
# B1: PIH1 domain-containing protein 1 (Mus musculus), Q9CQJ2 (parent)
# chain: MADSTFLAPELSDTESMGEETVRFQELLLKASKELQQAQTARPDSTQIQPKPGFCVKTNSSEGKVFINICHSPSIPPPADVTEDELLQMLEEDQAGFRIPMSLGEPHAELDAKGQGCTAYDVAVNSNFYLRMQNSDFLRELVVTIAREGLEDKYGLQLNPEWRMLKYRSFLGSISQQNIRSQQRPRIQELGTLDASGSLGTCHGPERPHLNLWLEAPDLLLAEVDLPKLDGAQGLALEIGENRLVIGGPQQLYHLDATVPLRINSEASRAAFHRRRKQLMVSMPLLTASS
# Variants of: B1
# Conditions: with telo2_mouse Telo2, Q9DC40
# Sequence of telo2_mouse Telo2, Q9DC40 (Q9DC40 whole entry): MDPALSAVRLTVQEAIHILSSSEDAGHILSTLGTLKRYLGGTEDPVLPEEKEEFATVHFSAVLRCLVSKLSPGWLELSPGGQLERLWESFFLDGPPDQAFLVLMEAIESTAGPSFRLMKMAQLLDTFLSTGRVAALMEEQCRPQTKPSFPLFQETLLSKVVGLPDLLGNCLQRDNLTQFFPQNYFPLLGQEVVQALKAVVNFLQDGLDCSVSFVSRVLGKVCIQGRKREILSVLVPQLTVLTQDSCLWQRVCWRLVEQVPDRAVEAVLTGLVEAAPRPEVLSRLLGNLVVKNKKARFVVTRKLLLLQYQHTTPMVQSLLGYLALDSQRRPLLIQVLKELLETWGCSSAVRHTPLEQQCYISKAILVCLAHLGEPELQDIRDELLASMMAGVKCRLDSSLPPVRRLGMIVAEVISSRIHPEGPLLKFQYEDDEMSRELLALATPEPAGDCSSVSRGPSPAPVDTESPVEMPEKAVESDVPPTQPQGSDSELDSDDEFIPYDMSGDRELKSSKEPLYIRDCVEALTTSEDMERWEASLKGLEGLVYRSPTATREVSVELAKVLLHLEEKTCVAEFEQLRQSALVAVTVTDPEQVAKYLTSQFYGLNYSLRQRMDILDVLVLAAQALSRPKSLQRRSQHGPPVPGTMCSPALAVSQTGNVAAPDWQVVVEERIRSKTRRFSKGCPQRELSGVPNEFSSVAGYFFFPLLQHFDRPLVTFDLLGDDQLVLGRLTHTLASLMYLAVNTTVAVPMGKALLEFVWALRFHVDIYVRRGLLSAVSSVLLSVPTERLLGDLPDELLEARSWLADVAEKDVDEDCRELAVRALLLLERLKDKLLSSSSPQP
row,effect of a mutation on the interaction,Variant
1,disrupting interaction strength,K57E
2,disrupting interaction strength,K64E
